Results on one molecule are retold here after patent US20080286264A1 (Dana-Farber, published 2008).

The experiment deals with p53(293-393) (human, UniProt P04637 293-393). The experiment in a line: co-IP with anti-p53 from transfected U2OS cells, immunoblot with anti-MUC1 C-ter. A general note: Immunoblotting shows a protein as a band on a membrane.
p53(293-393), sequence (P04637 293-393): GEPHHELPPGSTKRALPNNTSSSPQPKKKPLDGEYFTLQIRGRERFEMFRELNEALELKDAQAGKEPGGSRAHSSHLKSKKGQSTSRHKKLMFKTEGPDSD

B1: Myc-MUC1-CD(1-72) (other)
chain: CQCRRKNYGQLDIFPARDTYHPMSEYPTYHTHGRYVPPSSTDRSPYEKVSAGNGGSSLSYTNPAVAATSANL
notes: Transiently expressed in U2OS cells; not shown: Myc tag
On to B1, for which the binding result is given as “binds”.
